The text below walks through data of paper PMC2778132.

The assay addresses endogenous αIIbβ3 integrin receptor of activated platelets (human (endogenous in platelets)) (UniProt P08514).

RGDS [RGDS peptide] had a reduction of adhesion of TRAP-activated platelets to fibrinogen-coated wells (1 µM peptide, compared to N-PTB^D66E) of 7%.
